Measured values reported in the Human Domainome abundance scans (Beltran et al. 2025).

B1: Chromodomain-helicase-DNA-binding protein 7, residues 2564 to 2605; numbered along this chain, Q9P2D1 (parent)
chain: DPDTRIPVINLEDGTRLVGEDAPKNKDLVEWLKLHPTYTVDM
B2: Histone H1t, residues 44 to 112; numbered along this chain, P22492 (parent)
chain: VSKLITEALSVSQERVGMSLVALKKALAAAGYDVEKNNSRIKLSLKSLVNKGILVQTRGTGASGSFKLS

Variants of: B1
Experiment: abundance fitness (aPCA) (normalised: wild type 0, dead -1); higher = more abundant; growth selection in yeast, the domain comes from the species named
Settings: Homo sapiens

Abundance fitness, by site and new letter:
D3: C -0.749, W -0.53, H 0.089, M -0.063, E 0.106, Q -0.109, T -0.182, S -0.137, R -0.256, V -0.335, F -0.259, L -0.122, G -0.384, A -0.283, I -0.54
I6: D -0.201, E -0.276, N -0.419, V 0.262, L -0.697, F -0.283, H -0.133, Y -0.699, S -0.189
N10: K -0.341, V -0.852, M -0.598, R -0.409, T -0.466, C -0.054, D -0.154, F -0.85, E -0.786, G -0.388, Q -0.738, Y -0.989, W -0.549, H -0.298, S -0.025, L -1.01, I -1.4, A -0.598
V8: D -0.511, I -0.433, P -0.534, W -0.794, C -0.577, E -0.516, N -0.578, R -0.624, F -0.869, Q -0.384, S -0.644, Y -0.894, A -0.535, L -0.481, G -0.66, K -0.387, H -0.577
P7: F -1.07, C -0.347, V -0.238, Q -0.691, T -0.046, D 0.133, K 0.082, M -0.297, A 0.067, N -0.145, G 0.227, R 0.064
D1: Y -0.298, G -0.901, V -0.184, A -0.69, R -1, S -0.237, E -1.19, C -0.283, F 0.073, L -0.43
P2: H -0.737, Q 0.182, D -0.301, A -0.031, F -0.513, R 0.161, I -0.078, T 0.179, W -0.02, S 0.017, C 0.148, L -0.179, G -0.074
T4: P -0.286, I -0.115
R5: P -0.004, V -0.372, I -0.39, W -0.906, G -0.374, D -0.709, L -0.844, S -0.303, F -0.451, M -0.242, N -0.349, K 0.124, Q -0.493, C -0.27, T -0.244
L11: D 0.067, E 0.058, C -0.195, F 0.015
I9: F -0.075, T -0.012, E -0.088, G -0.159, A -0.111, R 0.064, S -0.098, V 0.04, D -0.345, C -0.123, Q -0.032, L 0.026

Variants of: B2
Experiment: as above
Settings: Homo sapiens

Abundance fitness, by site and new letter:
R58: V -0.089, Y -0.246, H -0.041, E 0.028, K 0.155, Q 0.036, P -0.02, F -0.115, S 0.103, G 0.205, W -0.151, I -0.09, N 0.227, A 0.078, C -0.121, D 0.022, L -0.073, M -0.077
K67: R -0.035, Q -0.092, A -0.028, F 0.06, P -0.202, H -0.148, S 0.024, V -0.109, I -0.192, Y -0.181, C -0.096, T -0.193, L -0.158, M -0.066, W -0.246, N -0.091, D -0.174
F66: N -0.119, K -0.042, D 0.053, P -0.112, W -0.064
